Consider 19 molecules from patent US20260070984A1 (Boehringer Ingelheim, published 2026).

What is called Kd is the equilibrium constant for the complex coming apart. The term koff denotes a measure of how fast the partners let go of each other. What is called kon is the second-order rate constant of association.

To fix the notation:
B1: 803E6 (mouse IgG1 backbone) (antibody, V domains shown)
VH: EVKLVESEGGLVQPGSSMKLSCTASGFTFSDYYMAWVRQVPEKGLEWVANINYDGFNTYYLDSLKSRFIISRDNAKNILYLQMSSLKSEDTATYYCARGGYWSLYFDYWGQGTTLTVSS
VL: DIVMTQSPSSLTVTAGEKVTMSCKSSQSLLHSGNQKNYMTWYQQKPGQPPKLLIYWASTRESGVPDRFTGSGSGTDFTLTISSVQAEDLAVYYCQNDYSYPLTFGAGTKLELK
B2: 701E9 (mouse IgG1 backbone) (antibody, V domains shown)
VH: QVQLQQSGPELVKPGASVKLSCKASGYTFIDYTIHWVKQSPGQGLEWIGWIFPGSTNDTKYNDKFKGKATMTADKSSSTAYMQLSSLTSEDSAVYFCARYRTDFDYWGQGTTLTVSS
VL: DIQMTQSPSSLSASLGERVSLTCRASQEISGYLSWLQQKPDGTIKRLIYAASTLDSGVPKRFSGSRSGSDYSLTISSLESEDFADYYCLQYASYPLTFGAGTKLELK
B3: 811G3 (mouse IgG1 backbone) (antibody, V domains shown)
VH: QIQLQQSGPEVVKPGASVKISCKASGYTFTDYYINWVKQRPGQGLEWIGWIYPGGGHTKYNEKFKGEATLTVDTSSRTAYMQLSSLTSEDSAVYFCARYSNYYFDFWGHGTTLTVSS
VL: DIQMTQSPSSLSASPGERVSLTCRASQEISGYLSWLQQKPDGTIKRLIYVASTLDSGVPKRFSGSRSGSDYSLTISSLESEDFADYYCLQYANYPYTFGGGTKLEIK
B4: 701C1 (mouse IgG1 backbone) (antibody, V domains shown)
VH: EVQLQQSGPELVKPGASVKMSCKASGYTFTSYVIHWVKQKPGQGLEWIGYIDPSNDDTKYNEKFKGKATLTSDKSSSTAYMELSSLTSEDSAVYYCAREAYYGGLYGMDYWGQGTSVTVSS
VL: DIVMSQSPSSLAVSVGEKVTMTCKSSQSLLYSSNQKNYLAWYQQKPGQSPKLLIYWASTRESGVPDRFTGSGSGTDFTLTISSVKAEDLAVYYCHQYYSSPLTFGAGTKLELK
B5: 709A6 (mouse IgG1 backbone) (antibody, V domains shown)
VH: QVTLKESGPGILQPSQTLSLTCSFSGFSLSTSGMGVSWIRQPSGKGLEWLTHIYWDDDKRYNPSLKSRLTISKDTSRNQVFLEITSVDTADTATYFCARSSQGLYSSYDYWGQGTTLTVSS
VL: DIVLTQSPASLAVSLGQRATISCRASESVDIYGISFLHWYQQKPGQPPKHLIYRASNLDSGIPARFSGSGSRTDFTLTINPVETDDVATYYCQQSNKDPLTFGAGTKLELK
B6: 502H1 (mouse IgG1 backbone) (antibody, V domains shown)
VH: QVTLKESGPGILQPSQTLSLTCSFSGFSLSTSGMGVTWIRKPSGQGLEWLAHIFWDGDKRYNPSLKSRLTISKDSSSNQVFLMITGVGTADAATYYCARYYYFDYGYAIDYWGQGTSVTVSS
VL: DIVMTQAAFYNPVTLGTSASISCRSSKSLLHRNGITYLYWYLQKPGQSPQLLIYQMSNLASGVPDRFSSSGSGADFTLRISRVEAEDVGVYYCAQNLELPLTFGAGTKLELK
B7: 307A3 (mouse IgG1 backbone) (antibody, V domains shown)
VH: EVQLQQSGPELVKPGASVKISCKASGYTFTDYYVNWVKQSHGKSLEWFGDIHPNNGGITYNQKFKGKASLTVDKSSSTAYMELRSLTSEDSAVYYCARRRYDYDGFAYWGQGTLVTVSA
VL: EIVMTQAAFSNPVTLGTSASISCRSSKSLLHRNGITYLYWYLQKPGQSPQLLIYEMSNLASGVPDRFSGSGSGTDFTLRISRVEAEDVGVYYCGQNLEFPLTFGAGTKLELK
B8: Chimeric 814E10 (antibody, V domains shown)
VH: QIQLQQSGPELVKPGASVKISCKASGYTFTSYYIQWVKQRPGQGLEWIGWIYPGDGTTNYNENFKGKTTLTADKSSSTVYMLLSSLTSEDSAVYFCARYGLVPFDYWGQGTTLTVSS
VL: DIQMTQTTSSLSASLGDRVTISCSASQDIINYLNWYQQKPDGTVKLLIYSTSSLHSGVSLRFSGSGSGTDYSLTISNLEPEDVATYYCHQYSQLPYTFGGGTKLEIK
notes: Mouse variable domains in human IgG4Pro (Ser228Pro) backbone; also called 814E10 in human IgG4Pro backbone
B9: Chimeric 803E6 (antibody, V domains shown)
VH: EVKLVESEGGLVQPGSSMKLSCTASGFTFSDYYMAWVRQVPEKGLEWVANINYDGFNTYYLDSLKSRFIISRDNAKNILYLQMSSLKSEDTATYYCARGGYWSLYFDYWGQGTTLTVSS
VL: DIVMTQSPSSLTVTAGEKVTMSCKSSQSLLHSGNQKNYMTWYQQKPGQPPKLLIYWASTRESGVPDRFTGSGSGTDFTLTISSVQAEDLAVYYCQNDYSYPLTFGAGTKLELK
notes: Mouse variable domains in human IgG4Pro (Ser228Pro) backbone; also called 803E6 in human IgG4Pro backbone
B10: Chimeric 701E9 (antibody, V domains shown)
VH: QVQLQQSGPELVKPGASVKLSCKASGYTFIDYTIHWVKQSPGQGLEWIGWIFPGSTNDTKYNDKFKGKATMTADKSSSTAYMQLSSLTSEDSAVYFCARYRTDFDYWGQGTTLTVSS
VL: DIQMTQSPSSLSASLGERVSLTCRASQEISGYLSWLQQKPDGTIKRLIYAASTLDSGVPKRFSGSRSGSDYSLTISSLESEDFADYYCLQYASYPLTFGAGTKLELK
notes: Mouse variable domains in human IgG4Pro (Ser228Pro) backbone; also called 701E9 in human IgG4Pro backbone
B11: Chimeric 811G3 (antibody, V domains shown)
VH: QIQLQQSGPEVVKPGASVKISCKASGYTFTDYYINWVKQRPGQGLEWIGWIYPGGGHTKYNEKFKGEATLTVDTSSRTAYMQLSSLTSEDSAVYFCARYSNYYFDFWGHGTTLTVSS
VL: DIQMTQSPSSLSASPGERVSLTCRASQEISGYLSWLQQKPDGTIKRLIYVASTLDSGVPKRFSGSRSGSDYSLTISSLESEDFADYYCLQYANYPYTFGGGTKLEIK
notes: Mouse variable domains in human IgG4Pro (Ser228Pro) backbone; also called 811G3 in human IgG4Pro backbone
B12: Chimeric 708E4 (antibody, V domains shown)
VH: QIQLQQSGPELVKPGASVKISCKASGYTFTDYYLNWVKQRPGHGLEWIGWIYPGSSDTKHNENFKGKATLTVDTYSSTAYMQLGSLTSEDSAVYFCTRYSNFFFDYWGQGTTLTVSS
VL: DIVMTQSQKFLSTSVGDRVRVTCKASQNVVTYVAWYQQKPGQSPKSLIYSASYRYSGVPDRFTGSGSGTYFTLTINNVQFEDLAEYFCQQYHSYPYTFGGGTKLEIK
notes: Mouse variable domains in human IgG4Pro (Ser228Pro) backbone; also called 708E4 in human IgG4Pro backbone
B13: Chimeric 414A12 (antibody, V domains shown)
VH: QVQLQQPGAELVKPGASVKLSCKASGHTFTSNWIHWVKQRPGQGLEWIGEIDPSDSYTYYNQKFKGKATLTVDKSSSTAYMQLSSLTSEDSAVYSCACPGRNSNFAYWGQGTTLTVSS
VL: DILMTQSPSSMSVSLGDTVSITCHASQGINNNIGWLQQKPGKSFKGLIYHKSNLEDGVPSRFSGSGSGADYSLTISSLESEDFADYYCVQYAQFPYTFGGGTKLEIK
notes: Mouse variable domains in human IgG4Pro (Ser228Pro) backbone; also called 414A12 in human IgG4Pro backbone
B14: Chimeric 701C1 (antibody, V domains shown)
VH: EVQLQQSGPELVKPGASVKMSCKASGYTFTSYVIHWVKQKPGQGLEWIGYIDPSNDDTKYNEKFKGKATLTSDKSSSTAYMELSSLTSEDSAVYYCAREAYYGGLYGMDYWGQGTSVTVSS
VL: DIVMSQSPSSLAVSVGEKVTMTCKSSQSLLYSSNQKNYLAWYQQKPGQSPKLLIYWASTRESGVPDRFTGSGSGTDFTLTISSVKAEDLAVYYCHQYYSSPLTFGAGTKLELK
notes: Mouse variable domains in human IgG4Pro (Ser228Pro) backbone; also called 701C1 in human IgG4Pro backbone
B15: Chimeric 709A6 (antibody, V domains shown)
VH: QVTLKESGPGILQPSQTLSLTCSFSGFSLSTSGMGVSWIRQPSGKGLEWLTHIYWDDDKRYNPSLKSRLTISKDTSRNQVFLEITSVDTADTATYFCARSSQGLYSSYDYWGQGTTLTVSS
VL: DIVLTQSPASLAVSLGQRATISCRASESVDIYGISFLHWYQQKPGQPPKHLIYRASNLDSGIPARFSGSGSRTDFTLTINPVETDDVATYYCQQSNKDPLTFGAGTKLELK
notes: Mouse variable domains in human IgG4Pro (Ser228Pro) backbone; also called 709A6 in human IgG4Pro backbone
B16: Chimeric 502H1 (antibody, V domains shown)
VH: QVTLKESGPGILQPSQTLSLTCSFSGFSLSTSGMGVTWIRKPSGQGLEWLAHIFWDGDKRYNPSLKSRLTISKDSSSNQVFLMITGVGTADAATYYCARYYYFDYGYAIDYWGQGTSVTVSS
VL: DIVMTQAAFYNPVTLGTSASISCRSSKSLLHRNGITYLYWYLQKPGQSPQLLIYQMSNLASGVPDRFSSSGSGADFTLRISRVEAEDVGVYYCAQNLELPLTFGAGTKLELK
notes: Mouse variable domains in human IgG4Pro (Ser228Pro) backbone; also called 502H1 in human IgG4Pro backbone
B17: Chimeric 306E6 (antibody, V domains shown)
VH: EVQLQQSGPELVKPGSSVKISCKASGYTFTDYYVNWVKQSHGKSLEWFGDIHPNSGDTTYNQKFKDKATLTVDKSSSTAYMELRSLTSEDSAVYYCARRRYDYDGFAYWGQGTLVTVSA
VL: EIVMTQAAFSNPVTLGTSASISCRSSKSLLHRNGITYLYWYLQKPGQSPQLLIYEMSNLASGVPDRFSSSGSGTDFTLRISRVEAEDVGVYYCGQNLEFPLTFGAGTKLELK
notes: Mouse variable domains in human IgG4Pro (Ser228Pro) backbone; also called 306E6 in human IgG4Pro backbone
B18: Chimeric 307A3 (antibody, V domains shown)
VH: EVQLQQSGPELVKPGASVKISCKASGYTFTDYYVNWVKQSHGKSLEWFGDIHPNNGGITYNQKFKGKASLTVDKSSSTAYMELRSLTSEDSAVYYCARRRYDYDGFAYWGQGTLVTVSA
VL: EIVMTQAAFSNPVTLGTSASISCRSSKSLLHRNGITYLYWYLQKPGQSPQLLIYEMSNLASGVPDRFSGSGSGTDFTLRISRVEAEDVGVYYCGQNLEFPLTFGAGTKLELK
notes: Mouse variable domains in human IgG4Pro (Ser228Pro) backbone; also called 307A3 in human IgG4Pro backbone
B19: Chimeric 313C12 (antibody, V domains shown)
VH: EVQLVESGGGLVKPGGSLKLSCAASGFTFSDYGMHWVRQTPEKGLEWIAYINSDSNTIYYADTVKGRFTISRDNARKTLYLQMTSLRSEDTAMYYCSPLVAPDYWGQGTTLTVSS
VL: DIVMTQSQKFMSTTVGDRVSITCKASQNVGTAVAWYQQKPGQSPKLLIYSVSNRYTGVPDRFTGSGSGTDFTLTISNMQSEDLADYFCQQYSSYPFTFGAGTKLELK
notes: Mouse variable domains in human IgG4Pro (Ser228Pro) backbone; also called 313C12 in human IgG4Pro backbone

Chain of human PD-1 expressed on cells (Q15116 25-288): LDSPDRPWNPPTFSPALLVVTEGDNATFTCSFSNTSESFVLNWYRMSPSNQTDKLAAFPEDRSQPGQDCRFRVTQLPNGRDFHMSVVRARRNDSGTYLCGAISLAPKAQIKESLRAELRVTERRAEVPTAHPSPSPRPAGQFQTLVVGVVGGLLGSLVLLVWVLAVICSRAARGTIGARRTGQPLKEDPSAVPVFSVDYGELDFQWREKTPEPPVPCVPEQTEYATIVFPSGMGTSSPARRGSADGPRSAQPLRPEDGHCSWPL
T1 sequence (Q15116 25-167 limits assumed): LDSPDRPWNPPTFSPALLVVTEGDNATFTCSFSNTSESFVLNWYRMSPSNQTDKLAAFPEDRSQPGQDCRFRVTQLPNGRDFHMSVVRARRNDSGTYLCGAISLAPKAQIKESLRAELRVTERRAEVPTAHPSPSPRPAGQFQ

The first assay has as its target human PD-1 expressed on cells (human, UniProt Q15116 25-288). Put plainly: cell-based or functional assay.
For the molecule B1, the “Emax Values (%), inhibition of NFAT activity” value (“Emax Values (%), inhibition” below) is 48.3% and the “IC50 Values (nM), inhibition of NFAT activity” value (“IC50 Values (nM), inhibition” for short) came to 0.38 nM.
Taken in the same sequence, the figures for B2 were 46% and 0.22 nM.
Taken in the same sequence, the figures for B3 were 44.5% and 0.14 nM.
Taken in the same sequence, the figures for B4 were 53.2% and 1.69 nM.
Turning to B5, the “Emax Values (%), inhibition” value was 29.8% and the “IC50 Values (nM), inhibition” value was found to be 0.04 nM.
For B6, the “Emax Values (%), inhibition” value was determined as 48.9% and the “IC50 Values (nM), inhibition” value came out at 0.34 nM.
For B7, in that order: 42.6% and 1.03 nM.

Another assay concerns the target T1, recombinant human PD-1 (human, UniProt Q15116 25-167, limits assumed).
T1 construct: Soluble recombinant protein used in SPR; also called PDCD1; purified recombinant human PD-1
As to the kind of experiment: SPR, ProteOn XPR36. On the procedure:
Kinetics and binding affinities were measured using the ProteOn™ XPR36 (Biorad, Hercules, CA) surface plasmon resonance optical biosensor using material generated from transient transfection following single column purification.
A general note: Surface plasmon resonance follows binding to a sensor surface in real time, without labels.
As to B8, the Kd came to 1.85 nM, the koff is 0.000149 s⁻¹ and the on-rate (kon) worked out at 80700 M⁻¹ s⁻¹.
Taken in the same sequence, the figures for B9 were 5.02 nM, 0.00053 s⁻¹ and 106000 M⁻¹ s⁻¹.
As for B10, the Kd was 1.62 nM, the off-rate constant (koff) is 0.000143 s⁻¹ and the kon amounted to 88300 M⁻¹ s⁻¹.
Taken in the same sequence, the figures for B11 were 9.14 nM, 0.000801 s⁻¹ and 87700 M⁻¹ s⁻¹.
For B12, in that order: 8.08 nM, 0.000348 s⁻¹ and 43100 M⁻¹ s⁻¹.
Regarding B13, the dissociation constant Kd was 1.5 nM, the off-rate constant (koff) was 0.000269 s⁻¹ and the kon is 180000 M⁻¹ s⁻¹.
Taken in the same sequence, the figures for B14 were 13 nM, 0.000305 s⁻¹ and 23400 M⁻¹ s⁻¹.
For B15, in that order: 5.52 nM, 0.000483 s⁻¹ and 87400 M⁻¹ s⁻¹.
Taken in the same sequence, the figures for B16 were 6.39 nM, 0.000349 s⁻¹ and 54700 M⁻¹ s⁻¹.
On to B17, for which the dissociation constant Kd was 56.4 nM, the koff amounted to 0.00765 s⁻¹ and the on-rate (kon) came to 136000 M⁻¹ s⁻¹.
Consider B18, for which the Kd was determined as 63.5 nM, the koff amounted to 0.0074 s⁻¹ and the kon is 116000 M⁻¹ s⁻¹.
For B19, in that order: 0.859 nM, 5.77e-05 s⁻¹ and 67100 M⁻¹ s⁻¹.
